Data: patent US20140274782A1 (Stanford University, published 2014)

Tests used:
Test in all cases: ProtoArray, GST-treated control array;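 also: human protein microarray (about 9500 recombinant proteins) incubated overnight with GST alone plus SAM cofactor as the negative control for G9a SET domain methylation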
CTSZ-Cathepsin Z = CTSZ-Cathepsin Z (human, UniProt Q9UBR2 24-303, limits assumed)
[1] = target: HPCAL4-hippocalcin like 4 (HPCAL4) (human, UniProt Q9UM19 1-191)
[2] = target: T1, PPIL5-Peptidylprolyl isomerase-like 5 (human, UniProt Q96L50 1-414, limits assumed)
T1 sequence (looked up): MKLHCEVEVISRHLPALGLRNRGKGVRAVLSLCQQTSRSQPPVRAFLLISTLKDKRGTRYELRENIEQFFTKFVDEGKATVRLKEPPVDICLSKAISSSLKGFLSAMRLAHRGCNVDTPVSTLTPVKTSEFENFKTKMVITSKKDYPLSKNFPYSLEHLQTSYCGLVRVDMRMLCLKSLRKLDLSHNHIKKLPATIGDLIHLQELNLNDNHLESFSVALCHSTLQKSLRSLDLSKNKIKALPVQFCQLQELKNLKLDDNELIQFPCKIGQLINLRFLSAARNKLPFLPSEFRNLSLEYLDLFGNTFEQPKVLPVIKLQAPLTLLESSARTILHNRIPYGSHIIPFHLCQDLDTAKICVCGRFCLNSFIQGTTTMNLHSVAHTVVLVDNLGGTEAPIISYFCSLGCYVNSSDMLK

[3] = target: T2, GFOD1-Glucose-fructose oxidoreductase domain-containing protein 1 (human, UniProt Q9NXC2 22-390, limits assumed)
T2 sequence (looked up): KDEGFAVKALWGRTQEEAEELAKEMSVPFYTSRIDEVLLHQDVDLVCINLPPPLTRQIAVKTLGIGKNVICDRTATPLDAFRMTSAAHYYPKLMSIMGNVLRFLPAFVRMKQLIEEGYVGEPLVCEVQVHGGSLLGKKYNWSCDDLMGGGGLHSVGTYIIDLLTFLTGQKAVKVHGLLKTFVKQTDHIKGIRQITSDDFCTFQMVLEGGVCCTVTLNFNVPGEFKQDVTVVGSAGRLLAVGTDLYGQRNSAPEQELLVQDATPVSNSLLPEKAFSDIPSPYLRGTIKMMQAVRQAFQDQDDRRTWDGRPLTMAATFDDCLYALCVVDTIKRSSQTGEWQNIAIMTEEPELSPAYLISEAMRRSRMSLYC

[4] = target: T3, CDKL5-Cyclin-dependent kinase-like 5 (human, UniProt O76039-1 1-1030, limits assumed)
T3 sequence (looked up): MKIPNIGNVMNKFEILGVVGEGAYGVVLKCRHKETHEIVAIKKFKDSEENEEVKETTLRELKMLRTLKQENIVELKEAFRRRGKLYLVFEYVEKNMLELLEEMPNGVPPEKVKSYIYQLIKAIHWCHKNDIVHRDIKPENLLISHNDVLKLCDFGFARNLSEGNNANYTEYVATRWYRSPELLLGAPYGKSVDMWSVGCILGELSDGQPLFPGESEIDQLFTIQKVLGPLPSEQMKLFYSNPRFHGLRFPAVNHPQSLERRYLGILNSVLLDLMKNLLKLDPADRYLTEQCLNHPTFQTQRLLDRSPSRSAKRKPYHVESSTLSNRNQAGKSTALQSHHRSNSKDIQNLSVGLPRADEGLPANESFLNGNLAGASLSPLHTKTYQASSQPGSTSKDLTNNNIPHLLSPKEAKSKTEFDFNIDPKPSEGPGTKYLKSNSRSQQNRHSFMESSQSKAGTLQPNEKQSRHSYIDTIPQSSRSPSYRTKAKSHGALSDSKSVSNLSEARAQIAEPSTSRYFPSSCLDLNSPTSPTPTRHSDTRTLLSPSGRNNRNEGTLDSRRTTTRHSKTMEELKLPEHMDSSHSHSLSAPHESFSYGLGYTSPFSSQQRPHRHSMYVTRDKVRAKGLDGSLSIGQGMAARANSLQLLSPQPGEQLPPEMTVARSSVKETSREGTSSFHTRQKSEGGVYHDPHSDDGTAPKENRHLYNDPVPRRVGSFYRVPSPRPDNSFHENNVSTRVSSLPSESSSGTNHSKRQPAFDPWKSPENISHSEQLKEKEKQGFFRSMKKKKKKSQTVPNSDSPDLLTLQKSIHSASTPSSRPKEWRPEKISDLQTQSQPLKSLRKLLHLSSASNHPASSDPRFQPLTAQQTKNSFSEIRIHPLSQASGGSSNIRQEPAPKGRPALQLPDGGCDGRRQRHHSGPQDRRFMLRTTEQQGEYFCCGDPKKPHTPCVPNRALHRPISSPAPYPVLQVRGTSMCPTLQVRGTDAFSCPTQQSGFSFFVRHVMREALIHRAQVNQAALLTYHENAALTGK

[5] = target: T4, PTCD2-pentatricopeptide repeat domain 2 (PTCD2) (human, UniProt Q8WV60 1-388, limits assumed)
T4 sequence (looked up): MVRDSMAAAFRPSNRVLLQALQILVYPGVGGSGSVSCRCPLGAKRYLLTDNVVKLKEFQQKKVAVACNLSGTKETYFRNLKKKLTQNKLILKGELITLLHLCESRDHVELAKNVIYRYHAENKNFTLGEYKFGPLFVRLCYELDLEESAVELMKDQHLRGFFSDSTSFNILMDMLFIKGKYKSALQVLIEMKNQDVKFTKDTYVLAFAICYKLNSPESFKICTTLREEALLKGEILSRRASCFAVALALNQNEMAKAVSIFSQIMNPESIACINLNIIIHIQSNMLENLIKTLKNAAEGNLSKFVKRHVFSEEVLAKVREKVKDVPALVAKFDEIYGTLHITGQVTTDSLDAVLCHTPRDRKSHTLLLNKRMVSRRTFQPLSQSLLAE

[6] = target: T5, DIRAS1-DIRAS family, GTP-binding RAS-like 1 (DIRAS1) (human, UniProt O95057 1-198, limits assumed)
T5 sequence (looked up): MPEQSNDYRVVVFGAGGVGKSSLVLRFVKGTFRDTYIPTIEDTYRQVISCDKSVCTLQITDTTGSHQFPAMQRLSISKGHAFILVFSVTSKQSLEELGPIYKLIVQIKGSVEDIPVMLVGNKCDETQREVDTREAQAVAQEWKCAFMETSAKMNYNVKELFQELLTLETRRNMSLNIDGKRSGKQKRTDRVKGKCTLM

[7] = target: T6, CCL24-C-C motif chemokine 24 (human, UniProt O00175 27-119, limits assumed)
T6 sequence (looked up): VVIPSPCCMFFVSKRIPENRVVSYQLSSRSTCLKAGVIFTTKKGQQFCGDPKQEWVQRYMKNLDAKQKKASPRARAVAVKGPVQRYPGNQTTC

Chain of HPCAL4-hippocalcin like 4 (HPCAL4) (Q9UM19 whole entry): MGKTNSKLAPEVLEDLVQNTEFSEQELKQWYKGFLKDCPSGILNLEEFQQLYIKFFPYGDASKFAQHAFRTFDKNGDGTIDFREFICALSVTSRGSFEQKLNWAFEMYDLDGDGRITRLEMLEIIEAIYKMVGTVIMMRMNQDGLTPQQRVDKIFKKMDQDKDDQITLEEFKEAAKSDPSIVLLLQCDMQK
Chain of CTSZ-Cathepsin Z (Q9UBR2 24-303 limits assumed): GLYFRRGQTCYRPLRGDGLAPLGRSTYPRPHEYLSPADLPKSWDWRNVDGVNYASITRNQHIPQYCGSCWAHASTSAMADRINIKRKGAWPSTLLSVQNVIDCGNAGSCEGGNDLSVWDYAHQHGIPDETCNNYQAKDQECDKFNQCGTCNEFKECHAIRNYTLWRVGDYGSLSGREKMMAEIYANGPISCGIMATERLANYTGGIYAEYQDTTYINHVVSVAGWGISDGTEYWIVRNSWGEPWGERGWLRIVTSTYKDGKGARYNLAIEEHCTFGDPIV

B1: 3× Flag-3×MBT (designed binder)
chain: EEWSSSQPATGEKKECWSWESYLEEQKAITAPVSLFQDSQAVTHNKNGFKLGMKLEGIDPQHPSMYFILTVAEVCGYRLRLHFDGYSECHDFWVNANSPDIHPAGWFEKTGHKLQPPKGYKEEEFSWSQYLRSTRAQAAPKHLFVSQSHSPPPLGFQVGMKLEAVDRMNPSLVCVASVTDVVDSRFLVHFDNWDDTYDYWCDPSSPYIHPVGWCQKQGKPLTPPQDYPDPDNFCWEKYLEETGASAVPTWAFKVRPPHSFLVNMKLEAVDRRNPALIRVASVEDVEDHRIKIHFDGWSHGYDFWIDADHPDIHPAGWCSKTGHPLQPPLGPREPSSASPGG
notes: also called Flag-tagged 3×MBT; 3xFlag-3xMBT; not shown: made by PreScission cleavage of GST-3× Flag-3×MBT
GST Average SNR (CTSZ-Cathepsin Z): 1.28 | GST Average SNR [1]: -0.871 | GST Average SNR [2]: -0.512 | GST Average SNR [3]: 0.413 | GST Average SNR [4]: 1.43 | GST Average SNR [5]: 0.679 | GST Average SNR [6]: 0.988 | GST Average SNR [7]: 0.109
